Data published in US20230192897A1 (NUMAB THERAPEUTICS, published 2023).
Where two headings read alike, the source gives them in different places. One block for each binder: values may come before it.

Tests used:
[1] = biological target: T1, human PDL1 on cells (human, UniProt Q9NZQ7 19-290); assay: cell-based or functional assay
[2] = biological target: T2, CD137 on Jurkat NFkB reporter cells (human, UniProt Q07011 24-255); assay: cell-based or functional assay
[3] = biological target: T3, biotinylated human PDL1 (human, UniProt Q9NZQ7 19-238, limits assumed, biotinylated); assay: competition ELISA PD-1/PDL1
T3 construct: also called biotinylated PDL1

[4] = biological target: human PDL1 extracellular domain (human, UniProt Q9NZQ7 19-238); assay: SPR, IgG format captured
Method: (§1) Affinity to PDL1 of the different species was determined by SPR measurements using a Biacore T200 device (GE Healthcare). An antibody specific for the Fc region of human IgGs was immobilized on a sensor chip (CM5 sensor chip, GE Healthcare) by amine-coupling. For all formats, with the exception of the Fc containing Morrison formats, PDL1-Fc chimeric protein from different species were captured by the immobilized antibody.
(§2) The Fc containing formats were directly captured by the antibody specific for the Fc region of human IgGs. Two-fold serial dilutions of PDL1 extracellular domain or CD137 extracellular domain ranging from 90 to 0.35 nM were tested for binding to the IgG captured on the biosensor chip. After each injection cycle, surfaces were regenerated with one injection of a 3 M MgCl2 solution.

[5] = biological target: T4, human CD137 extracellular domain (human, UniProt Q07011 24-186); assay: SPR, IgG format captured
T4 construct: also called CD137 (PeproTech, cat. 310-15)
Method: as §1, §2

[6] = biological target: T3, biotinylated human PDL1; assay: competition ELISA B7.1/PDL1
Method in brief: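 IC₅₀ was derived by four-parameter logistic fitting of reference-subtracted A450/690 readings. The signal came from streptavidin-polyHRP40 (10 ng/ml) with a 6-minute TMB reaction detecting biotinylated PDL1 bound to the plate. Pre-mixed samples sat 1 h at RT before a 1.5 h plate incubation.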

[7] = biological target: T2, CD137 on Jurkat NFkB reporter cells; assay: cell-based or functional assay; remark: listed apart in the source
[8] = biological target: T2, CD137 on Jurkat NFkB reporter cells; assay: cell-based or functional assay; remark: listed apart in the source
[9] = biological target: T1, human PDL1 on cells; assay: cell-based or functional assay; remark: listed apart in the source
[10] = biological target: T2, CD137 on Jurkat NFkB reporter cells; assay: cell-based or functional assay; remark: listed apart in the source
[11] = biological target: T2, CD137 on Jurkat NFkB reporter cells; assay: cell-based or functional assay; remark: listed apart in the source

IC50 (ng/ml), NF-AT potency assay [1]: 96.5 ng/mL
rel. IC50 (avelumab/test) [1]: 0.68 fold
EC50, NFkB reporter, CHO-PDL1, 6 h [2]: 0.0522 µg/mL
EC50, NFkB reporter, CHO-PDL1, 24 h [2]: 0.0869 µg/mL
IC50 (ng/ml), NFkB reporter, CHO-PD-L1, 24 h [2]: 86.9 ng/mL
max. activation (%), NFkB reporter, CHO-PD-L1, 24 h [2]: 134%
rel. IC50 (urelumab/test), NFkB reporter, CHO-PD-L1, 24 h [2]: 0.54 fold
IC50 [3]: 0.0113 µg/mL
rel. IC50 (IC50 avelumab/IC50 test) [3]: 0.32 fold
koff [4]: 5e-05 s⁻¹
Kd [5]: 1.3 nM
koff [5]: 0.00037 s⁻¹
kon [5]: 280000 M⁻¹ s⁻¹
IC50 [6]: 0.0195 µg/mL
rel. IC50 (IC50 avelumab/IC50 test) [6]: 0.51 fold
B1: PRO1062 (bispecific antibody, human IgG1, kappa, L234A L235A)
light: DIQMTQSPSSLSASVGDRVTITCQASQSINDYLAWYQQKPGKAPKLLIYKASTLASGVPSRFSGSGSGTDFTLTISSLQPEDFATYYCQQGYIITDIDNVFGTGTKVTVLGTVAAPSVFIFPPSDEQLKSGTASVVCLLNNFYPREAKVQWKVDNALQSGNSQESVTEQDSKDSTYSLSSTLTLSKADYEKHKVYACEVTHQGLSSPVTKSFNRGEC
heavy: QVQLQESGPGLVKPSETLSLTCKVSGFSFSSGYDMCWIRQPPGKGLEWIGCVVAGSVDITYYASWAKGRVTISVDSSKNQFSLKLSSVTAADTAVYYCARKDAYSDAFNLWGQGTLVTVSSASTKGPSVFPLAPSSKSTSGGTAALGCLVKDYFPEPVTVSWNSGALTSGVHTFPAVLQSSGLYSLSSVVTVPSSSLGTQTYICNVNHKPSNTKVDKRVEPKSCDKTHTCPPCPAPEAAGGPSVFLFPPKPKDTLMISRTPEVTCVVVDVSHEDPEVKFNWYVDGVEVHNAKTKPREEQYNSTYRVVSVLTVLHQDWLNGKEYKCKVSNKALGAPIEKTISKAKGQPREPQVYTLPPSREEMTKNQVSLTCLVKGFYPSDIAVEWESNGQPENNYKTTPPVLDSDGSFFLYSKLTVDKSRWQQGNVFSCSVMHEALHNHYTQKSLSLSPGKGGGGSGGGGSIQMTQSPSSLSASVGDRVTITCQASQSINNVLAWYQQKPGKAPKLLIYRASTLASGVPSRFSGSGSGTDFTLTISSLQPEDFATYYCQSSYGNYGDFGTGTKVTVLGGGGGSGGGGSGGGGSGGGGSQVQLQESGPGLVKPSETLSLTCKVSGFSFSNSYWICWIRQPPGKGLEWIGCTFVGSSDSTYYANWAKGRVTISVDSSKNQFSLKLSSVTAADTAVYYCARHPSDAVYGYANNLWGQGTLVTVSS
notes: also called 33-03-G02 sc01 IgG1 HC with 38-27-C05 sc01 scFv; Morrison-H

EC50, NFkB reporter, HCC827 with IFNg, 24 h [7]: 0.0175 µg/mL
EC50, NFkB reporter, HCC827 without IFNg, 24 h [7]: 0.0136 µg/mL
IC50 [3]: 0.00567 µg/mL
rel. IC50 (IC50 avelumab/IC50 test) [3]: 0.3 fold
EC50, NFkB reporter, CHO-PDL1, 24 h [8]: 0.0808 µg/mL
koff [4]: 4.6e-05 s⁻¹
kon [4]: 1.3e+06 M⁻¹ s⁻¹
Kd [5]: 1.3 nM
koff [5]: 0.00039 s⁻¹
IC50 [6]: 0.0174 µg/mL
rel. IC50 (IC50 avelumab/IC50 test) [6]: 0.49 fold
IC50 (ng/ml), NF-AT potency assay [9]: 133 ng/mL
rel. IC50 (avelumab/test) [9]: 0.44 fold
IC50 (ng/ml), NFkB reporter, CHO-PD-L1, 24 h [10]: 80.8 ng/mL
IC50 (ng/ml), NFkB reporter, HCC827 + IFNg, 24 h [10]: 17.5 ng/mL
IC50 (ng/ml), NFkB reporter, HCC827 - IFNg, 24 h [10]: 13.6 ng/mL
rel. IC50 (urelumab/test), NFkB reporter, CHO-PD-L1, 24 h [10]: 0.58 fold
rel. IC50 (urelumab/test), NFkB reporter, HCC827 + IFNg, 24 h [10]: 3.01 fold
rel. IC50 (urelumab/test), NFkB reporter, HCC827 - IFNg, 24 h [10]: 3.5 fold
EC50, NFkB reporter, CHO-PDL1, 6 h [11]: 0.0564 µg/mL
B2: PRO1060 (bispecific antibody, human IgG1, kappa, L234A L235A)
light: DIQMTQSPSSLSASVGDRVTITCQASQSINDYLAWYQQKPGKAPKLLIYKASTLASGVPSRFSGSGSGTDFTLTISSLQPEDFATYYCQQGYIITDIDNVFGTGTKVTVLGTVAAPSVFIFPPSDEQLKSGTASVVCLLNNFYPREAKVQWKVDNALQSGNSQESVTEQDSKDSTYSLSSTLTLSKADYEKHKVYACEVTHQGLSSPVTKSFNRGEC
heavy: QVQLQESGPGLVKPSETLSLTCKVSGFSFSSGYDMCWIRQPPGKGLEWIGCVVAGSVDITYYASWAKGRVTISVDSSKNQFSLKLSSVTAADTAVYYCARKDAYSDAFNLWGQGTLVTVSSASTKGPSVFPLAPSSKSTSGGTAALGCLVKDYFPEPVTVSWNSGALTSGVHTFPAVLQSSGLYSLSSVVTVPSSSLGTQTYICNVNHKPSNTKVDKRVEPKSCDKTHTCPPCPAPEAAGGPSVFLFPPKPKDTLMISRTPEVTCVVVDVSHEDPEVKFNWYVDGVEVHNAKTKPREEQYNSTYRVVSVLTVLHQDWLNGKEYKCKVSNKALGAPIEKTISKAKGQPREPQVYTLPPSREEMTKNQVSLTCLVKGFYPSDIAVEWESNGQPENNYKTTPPVLDSDGSFFLYSKLTVDKSRWQQGNVFSCSVMHEALHNHYTQKSLSLSPGKGGGGSGGGGSIQMTQSPSSLSASVGDRVTITCQASQSINNVLAWYQQKPGKAPKLLIYRASTLASGVPSRFSGSGSGTDFTLTISSLQPEDFATYYCQSSYGNYGDFGTGTKVTVLGGGGGSGGGGSGGGGSGGGGSQVQLQESGPGLVKPSETLSLTCKVSGFSFSNSYWICWIRQPPGKGLEWIGCTFVGSSDSTYYANWAKGRVTISVDSSKNQFSLKLSSVTAADTAVYYCARHPSDAVYGYANNLWGQGTLVTVSS
notes: silent hIgG1 anti-PDL1 with anti-CD137 scFv on the heavy chain; also called 33-03-G02 IgG1 HC with 38-02-A04 sc01 scFv; Morrison-H
